Experimental data from US12679878B2, “CRF2 receptor agonists and their use in therapy” (SANOFI, priority 2020, dated 2026).
Starred links: 1 amine or outer side, 2 acyl side, 3 side chain; linkers in the order of their positions; H or OH if unused. Non-standard residues stand in square brackets, D forms with d. Groups on a side chain read outwards from the residue. No end group written: not given here. *: point of attachment. C18 diacid = O=C(O)CCCCCCCCCCCCCCCCC(=O)*; γGlu = O=C(O)[C@H](CCC(=O)[*:2])N[*:1]; AEEA = NCCOCCOCC(=O)O; Aib = CC(C)(N)C(=O)O

T1: anti-target CRF1R receptor (UniProt P34998 24-415, limits assumed)
T1 sequence (looked up): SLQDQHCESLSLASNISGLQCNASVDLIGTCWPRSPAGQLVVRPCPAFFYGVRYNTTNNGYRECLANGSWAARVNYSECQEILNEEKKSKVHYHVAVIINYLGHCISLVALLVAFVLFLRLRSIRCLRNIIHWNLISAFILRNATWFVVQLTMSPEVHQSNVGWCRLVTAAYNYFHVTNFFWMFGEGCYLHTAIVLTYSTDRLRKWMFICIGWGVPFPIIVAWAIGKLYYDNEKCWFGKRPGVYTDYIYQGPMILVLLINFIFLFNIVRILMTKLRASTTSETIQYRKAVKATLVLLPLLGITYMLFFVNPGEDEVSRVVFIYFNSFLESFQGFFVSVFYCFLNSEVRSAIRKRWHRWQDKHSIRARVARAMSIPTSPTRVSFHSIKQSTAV

B1: peptide of SEQ ID NO: 99 (peptide)
peptide: IVLSLDVPIKLK([AEEA-AEEA-γGlu-C18 diacid])KILLKQERQKK[Aib]REQAEKNKQILAQV-NH2
modifications: N-terminus assumed
SMILES: CC[C@H](C)[C@H](N)C(=O)N[C@H](C(=O)N[C@@H](CC(C)C)C(=O)N[C@@H](CO)C(=O)N[C@@H](CC(C)C)C(=O)N[C@@H](CC(=O)O)C(=O)N[C@H](C(=O)N1CCC[C@H]1C(=O)N[C@H](C(=O)N[C@@H](CCCCN)C(=O)N[C@@H](CC(C)C)C(=O)N[C@@H](CCCCNC(=O)COCCOCCNC(=O)COCCOCCNC(=O)CC[C@H](NC(=O)CCCCCCCCCCCCCCCCC(=O)O)C(=O)O)C(=O)N[C@@H](CCCCN)C(=O)N[C@H](C(=O)N[C@@H](CC(C)C)C(=O)N[C@@H](CC(C)C)C(=O)N[C@@H](CCCCN)C(=O)N[C@@H](CCC(N)=O)C(=O)N[C@@H](CCC(=O)O)C(=O)N[C@@H](CCCNC(=N)N)C(=O)N[C@@H](CCC(N)=O)C(=O)N[C@@H](CCCCN)C(=O)N[C@@H](CCCCN)C(=O)NC(C)(C)C(=O)N[C@@H](CCCNC(=N)N)C(=O)N[C@@H](CCC(=O)O)C(=O)N[C@@H](CCC(N)=O)C(=O)N[C@@H](C)C(=O)N[C@@H](CCC(=O)O)C(=O)N[C@@H](CCCCN)C(=O)N[C@@H](CC(N)=O)C(=O)N[C@@H](CCCCN)C(=O)N[C@@H](CCC(N)=O)C(=O)N[C@H](C(=O)N[C@@H](CC(C)C)C(=O)N[C@@H](C)C(=O)N[C@@H](CCC(N)=O)C(=O)N[C@H](C(N)=O)C(C)C)[C@@H](C)CC)[C@@H](C)CC)[C@@H](C)CC)C(C)C)C(C)C
B2: peptide of SEQ ID NO: 100 (peptide)
peptide: IVLSLDVPIKLK([AEEA-AEEA-γGlu-C18 diacid])KILLKQERQKK[Aib]REQAETN[Aib]QILAQV-NH2
modifications: N-terminus assumed
SMILES: CC[C@H](C)[C@H](N)C(=O)N[C@H](C(=O)N[C@@H](CC(C)C)C(=O)N[C@@H](CO)C(=O)N[C@@H](CC(C)C)C(=O)N[C@@H](CC(=O)O)C(=O)N[C@H](C(=O)N1CCC[C@H]1C(=O)N[C@H](C(=O)N[C@@H](CCCCN)C(=O)N[C@@H](CC(C)C)C(=O)N[C@@H](CCCCNC(=O)COCCOCCNC(=O)COCCOCCNC(=O)CC[C@H](NC(=O)CCCCCCCCCCCCCCCCC(=O)O)C(=O)O)C(=O)N[C@@H](CCCCN)C(=O)N[C@H](C(=O)N[C@@H](CC(C)C)C(=O)N[C@@H](CC(C)C)C(=O)N[C@@H](CCCCN)C(=O)N[C@@H](CCC(N)=O)C(=O)N[C@@H](CCC(=O)O)C(=O)N[C@@H](CCCNC(=N)N)C(=O)N[C@@H](CCC(N)=O)C(=O)N[C@@H](CCCCN)C(=O)N[C@@H](CCCCN)C(=O)NC(C)(C)C(=O)N[C@@H](CCCNC(=N)N)C(=O)N[C@@H](CCC(=O)O)C(=O)N[C@@H](CCC(N)=O)C(=O)N[C@@H](C)C(=O)N[C@@H](CCC(=O)O)C(=O)N[C@H](C(=O)N[C@@H](CC(N)=O)C(=O)NC(C)(C)C(=O)N[C@@H](CCC(N)=O)C(=O)N[C@H](C(=O)N[C@@H](CC(C)C)C(=O)N[C@@H](C)C(=O)N[C@@H](CCC(N)=O)C(=O)N[C@H](C(N)=O)C(C)C)[C@@H](C)CC)[C@@H](C)O)[C@@H](C)CC)[C@@H](C)CC)C(C)C)C(C)C
B3: peptide of SEQ ID NO: 87 (peptide)
peptide: IVLSLDVPIKLK([AEEA-AEEA-γGlu-C18 diacid])QILLKQERQKKQREKAKTNKQILAQV-NH2
modifications: N-terminus assumed
SMILES: CC[C@H](C)[C@H](N)C(=O)N[C@H](C(=O)N[C@@H](CC(C)C)C(=O)N[C@@H](CO)C(=O)N[C@@H](CC(C)C)C(=O)N[C@@H](CC(=O)O)C(=O)N[C@H](C(=O)N1CCC[C@H]1C(=O)N[C@H](C(=O)N[C@@H](CCCCN)C(=O)N[C@@H](CC(C)C)C(=O)N[C@@H](CCCCNC(=O)COCCOCCNC(=O)COCCOCCNC(=O)CC[C@H](NC(=O)CCCCCCCCCCCCCCCCC(=O)O)C(=O)O)C(=O)N[C@@H](CCC(N)=O)C(=O)N[C@H](C(=O)N[C@@H](CC(C)C)C(=O)N[C@@H](CC(C)C)C(=O)N[C@@H](CCCCN)C(=O)N[C@@H](CCC(N)=O)C(=O)N[C@@H](CCC(=O)O)C(=O)N[C@@H](CCCNC(=N)N)C(=O)N[C@@H](CCC(N)=O)C(=O)N[C@@H](CCCCN)C(=O)N[C@@H](CCCCN)C(=O)N[C@@H](CCC(N)=O)C(=O)N[C@@H](CCCNC(=N)N)C(=O)N[C@@H](CCC(=O)O)C(=O)N[C@@H](CCCCN)C(=O)N[C@@H](C)C(=O)N[C@@H](CCCCN)C(=O)N[C@H](C(=O)N[C@@H](CC(N)=O)C(=O)N[C@@H](CCCCN)C(=O)N[C@@H](CCC(N)=O)C(=O)N[C@H](C(=O)N[C@@H](CC(C)C)C(=O)N[C@@H](C)C(=O)N[C@@H](CCC(N)=O)C(=O)N[C@H](C(N)=O)C(C)C)[C@@H](C)CC)[C@@H](C)O)[C@@H](C)CC)[C@@H](C)CC)C(C)C)C(C)C
B4: peptide of SEQ ID NO: 136 (peptide)
peptide: IVLSLD[dV]PIKLK([AEEA-AEEA-γGlu-C18 diacid])QILLKQERQKK[Aib]RQKAEKNKQILAQV-NH2
modifications: N-terminus assumed
SMILES: CC[C@H](C)[C@H](N)C(=O)N[C@H](C(=O)N[C@@H](CC(C)C)C(=O)N[C@@H](CO)C(=O)N[C@@H](CC(C)C)C(=O)N[C@@H](CC(=O)O)C(=O)N[C@@H](C(=O)N1CCC[C@H]1C(=O)N[C@H](C(=O)N[C@@H](CCCCN)C(=O)N[C@@H](CC(C)C)C(=O)N[C@@H](CCCCNC(=O)COCCOCCNC(=O)COCCOCCNC(=O)CC[C@H](NC(=O)CCCCCCCCCCCCCCCCC(=O)O)C(=O)O)C(=O)N[C@@H](CCC(N)=O)C(=O)N[C@H](C(=O)N[C@@H](CC(C)C)C(=O)N[C@@H](CC(C)C)C(=O)N[C@@H](CCCCN)C(=O)N[C@@H](CCC(N)=O)C(=O)N[C@@H](CCC(=O)O)C(=O)N[C@@H](CCCNC(=N)N)C(=O)N[C@@H](CCC(N)=O)C(=O)N[C@@H](CCCCN)C(=O)N[C@@H](CCCCN)C(=O)NC(C)(C)C(=O)N[C@@H](CCCNC(=N)N)C(=O)N[C@@H](CCC(N)=O)C(=O)N[C@@H](CCCCN)C(=O)N[C@@H](C)C(=O)N[C@@H](CCC(=O)O)C(=O)N[C@@H](CCCCN)C(=O)N[C@@H](CC(N)=O)C(=O)N[C@@H](CCCCN)C(=O)N[C@@H](CCC(N)=O)C(=O)N[C@H](C(=O)N[C@@H](CC(C)C)C(=O)N[C@@H](C)C(=O)N[C@@H](CCC(N)=O)C(=O)N[C@H](C(N)=O)C(C)C)[C@@H](C)CC)[C@@H](C)CC)[C@@H](C)CC)C(C)C)C(C)C
B5: peptide of SEQ ID NO: 132 (peptide)
peptide: IVLSLD[dV]PIKLK([AEEA-AEEA-γGlu-C18 diacid])QILLEQERQK[Aib]QREQAEKNKQILERV-NH2
modifications: N-terminus assumed
SMILES: CC[C@H](C)[C@H](N)C(=O)N[C@H](C(=O)N[C@@H](CC(C)C)C(=O)N[C@@H](CO)C(=O)N[C@@H](CC(C)C)C(=O)N[C@@H](CC(=O)O)C(=O)N[C@@H](C(=O)N1CCC[C@H]1C(=O)N[C@H](C(=O)N[C@@H](CCCCN)C(=O)N[C@@H](CC(C)C)C(=O)N[C@@H](CCCCNC(=O)COCCOCCNC(=O)COCCOCCNC(=O)CC[C@H](NC(=O)CCCCCCCCCCCCCCCCC(=O)O)C(=O)O)C(=O)N[C@@H](CCC(N)=O)C(=O)N[C@H](C(=O)N[C@@H](CC(C)C)C(=O)N[C@@H](CC(C)C)C(=O)N[C@@H](CCC(=O)O)C(=O)N[C@@H](CCC(N)=O)C(=O)N[C@@H](CCC(=O)O)C(=O)N[C@@H](CCCNC(=N)N)C(=O)N[C@@H](CCC(N)=O)C(=O)N[C@@H](CCCCN)C(=O)NC(C)(C)C(=O)N[C@@H](CCC(N)=O)C(=O)N[C@@H](CCCNC(=N)N)C(=O)N[C@@H](CCC(=O)O)C(=O)N[C@@H](CCC(N)=O)C(=O)N[C@@H](C)C(=O)N[C@@H](CCC(=O)O)C(=O)N[C@@H](CCCCN)C(=O)N[C@@H](CC(N)=O)C(=O)N[C@@H](CCCCN)C(=O)N[C@@H](CCC(N)=O)C(=O)N[C@H](C(=O)N[C@@H](CC(C)C)C(=O)N[C@@H](CCC(=O)O)C(=O)N[C@@H](CCCNC(=N)N)C(=O)N[C@H](C(N)=O)C(C)C)[C@@H](C)CC)[C@@H](C)CC)[C@@H](C)CC)C(C)C)C(C)C

Target: T1, anti-target CRF1R receptor
Assay: cell-based or functional assay

EC50[nM] 0% HSA (cAMP, CRF1R-overexpression CHO cells) [nM] | Emax (%) (cAMP, CRF1R-overexpression CHO cells) | Binder
> 1000 | 3.25 | B1
> 1000 | 5.06 | B2
> 1000 | -0.2 | B3
> 1000 | 21.8 | B4
> 1000 | 36.9 | B5

Target: rat CRF2R α receptor (rat, UniProt P47866 20-411)
Sequence (P47866 20-411): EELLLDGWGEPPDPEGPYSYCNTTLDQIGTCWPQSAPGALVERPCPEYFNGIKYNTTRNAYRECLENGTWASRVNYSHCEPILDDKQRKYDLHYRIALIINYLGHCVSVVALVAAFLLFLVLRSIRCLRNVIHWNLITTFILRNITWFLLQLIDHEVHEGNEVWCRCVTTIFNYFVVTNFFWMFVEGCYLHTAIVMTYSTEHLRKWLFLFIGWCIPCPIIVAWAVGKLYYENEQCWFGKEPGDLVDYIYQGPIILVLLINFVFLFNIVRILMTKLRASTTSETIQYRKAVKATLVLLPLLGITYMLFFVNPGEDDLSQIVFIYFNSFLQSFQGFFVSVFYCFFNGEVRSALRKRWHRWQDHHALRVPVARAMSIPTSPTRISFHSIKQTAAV
Assay: cell-based or functional assay

EC50 [nM], 0% HSA (cAMP, A7R5 cells) [nM] | Binder
0.62 | B1
7.52 | B2
1.49 | B3
0.38 | B4
0.79 | B5
